The values below come from the supplement of paper PMC10065799, “High-throughput profiling of sequence recognition by tyrosine kinases and SH2 domains using bacterial peptide display” (eLife, 2023).

Series [1] relates to AncSZ. Nature of the series: phosphorylation enrichment, bacterial display (enrichment ratio); higher = better substrate or ligand; peptides without Tyr show the background.
In series [2] the target is EPHB2 (UniProt P29323). Described as above.
Series [3] has as its target MERTK (UniProt Q12866). The description is as above.
Series [4] deals with Fyn (UniProt P06241). Described as above.
Chain of Fyn (P06241 whole entry, looked up): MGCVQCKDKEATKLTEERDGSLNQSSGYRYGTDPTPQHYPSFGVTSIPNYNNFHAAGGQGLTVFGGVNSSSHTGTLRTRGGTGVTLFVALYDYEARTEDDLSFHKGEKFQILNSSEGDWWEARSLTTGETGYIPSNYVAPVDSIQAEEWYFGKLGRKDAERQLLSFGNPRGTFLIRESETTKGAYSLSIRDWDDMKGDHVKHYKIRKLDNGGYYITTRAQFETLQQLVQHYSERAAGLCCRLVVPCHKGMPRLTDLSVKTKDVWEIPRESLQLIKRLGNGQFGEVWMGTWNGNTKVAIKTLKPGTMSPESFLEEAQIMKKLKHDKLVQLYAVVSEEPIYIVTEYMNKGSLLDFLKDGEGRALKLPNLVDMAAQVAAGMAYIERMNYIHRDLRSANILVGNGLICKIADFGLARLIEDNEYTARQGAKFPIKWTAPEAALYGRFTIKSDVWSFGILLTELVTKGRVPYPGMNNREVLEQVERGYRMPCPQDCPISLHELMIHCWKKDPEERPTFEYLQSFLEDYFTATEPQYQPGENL
Series [5] deals with c-Abl (mouse). Described as above.
The test system of series [6] is c-Src. The description is as above.
In series [7] the target is EPHB1 (UniProt P54762). The description is as above.
Series [8] deals with Hck (UniProt P08631). Described as above.
Chain of Hck (P08631 whole entry, looked up): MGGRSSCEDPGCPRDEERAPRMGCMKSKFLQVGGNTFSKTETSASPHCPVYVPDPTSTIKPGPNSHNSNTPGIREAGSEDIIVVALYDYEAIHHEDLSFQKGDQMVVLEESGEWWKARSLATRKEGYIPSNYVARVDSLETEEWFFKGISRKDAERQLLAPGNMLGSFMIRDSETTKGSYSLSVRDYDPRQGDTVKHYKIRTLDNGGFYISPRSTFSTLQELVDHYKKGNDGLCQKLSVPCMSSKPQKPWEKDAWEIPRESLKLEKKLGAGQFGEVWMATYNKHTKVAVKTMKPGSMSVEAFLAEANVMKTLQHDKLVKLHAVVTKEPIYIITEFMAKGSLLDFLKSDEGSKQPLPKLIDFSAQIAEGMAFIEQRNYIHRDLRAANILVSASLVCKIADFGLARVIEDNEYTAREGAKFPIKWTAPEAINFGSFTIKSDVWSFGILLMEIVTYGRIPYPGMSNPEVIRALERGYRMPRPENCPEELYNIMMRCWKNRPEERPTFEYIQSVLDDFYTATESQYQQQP
Series [9] has as its system Fer (mouse). The description is as above.
For series [10], the target named is FGFR3 (UniProt P22607). Described as above.
Chain of FGFR3 (P22607 whole entry, looked up): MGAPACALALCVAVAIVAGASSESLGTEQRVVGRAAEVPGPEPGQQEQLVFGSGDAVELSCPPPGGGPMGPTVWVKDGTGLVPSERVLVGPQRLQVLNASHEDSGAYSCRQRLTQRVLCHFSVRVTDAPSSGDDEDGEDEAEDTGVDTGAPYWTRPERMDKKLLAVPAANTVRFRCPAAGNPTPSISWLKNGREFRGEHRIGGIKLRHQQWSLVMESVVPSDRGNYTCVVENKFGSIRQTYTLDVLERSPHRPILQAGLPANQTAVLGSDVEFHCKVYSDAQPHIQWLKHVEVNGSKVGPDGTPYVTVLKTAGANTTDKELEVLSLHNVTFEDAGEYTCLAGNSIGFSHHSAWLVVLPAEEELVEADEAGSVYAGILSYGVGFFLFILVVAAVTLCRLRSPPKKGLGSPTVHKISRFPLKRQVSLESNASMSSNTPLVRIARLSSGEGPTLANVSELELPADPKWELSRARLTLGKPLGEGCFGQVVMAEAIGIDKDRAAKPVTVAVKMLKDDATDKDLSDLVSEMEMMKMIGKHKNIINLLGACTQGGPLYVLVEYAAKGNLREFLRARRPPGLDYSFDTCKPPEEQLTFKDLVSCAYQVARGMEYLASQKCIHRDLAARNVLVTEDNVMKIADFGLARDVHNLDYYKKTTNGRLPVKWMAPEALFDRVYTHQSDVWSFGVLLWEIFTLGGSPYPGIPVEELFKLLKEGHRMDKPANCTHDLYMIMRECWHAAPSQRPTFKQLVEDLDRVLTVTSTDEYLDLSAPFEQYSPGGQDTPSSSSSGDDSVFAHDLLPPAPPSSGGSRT
The target of series [11] is Jak2 (UniProt O60674). Described as above.
Chain of Jak2 (O60674 whole entry, looked up): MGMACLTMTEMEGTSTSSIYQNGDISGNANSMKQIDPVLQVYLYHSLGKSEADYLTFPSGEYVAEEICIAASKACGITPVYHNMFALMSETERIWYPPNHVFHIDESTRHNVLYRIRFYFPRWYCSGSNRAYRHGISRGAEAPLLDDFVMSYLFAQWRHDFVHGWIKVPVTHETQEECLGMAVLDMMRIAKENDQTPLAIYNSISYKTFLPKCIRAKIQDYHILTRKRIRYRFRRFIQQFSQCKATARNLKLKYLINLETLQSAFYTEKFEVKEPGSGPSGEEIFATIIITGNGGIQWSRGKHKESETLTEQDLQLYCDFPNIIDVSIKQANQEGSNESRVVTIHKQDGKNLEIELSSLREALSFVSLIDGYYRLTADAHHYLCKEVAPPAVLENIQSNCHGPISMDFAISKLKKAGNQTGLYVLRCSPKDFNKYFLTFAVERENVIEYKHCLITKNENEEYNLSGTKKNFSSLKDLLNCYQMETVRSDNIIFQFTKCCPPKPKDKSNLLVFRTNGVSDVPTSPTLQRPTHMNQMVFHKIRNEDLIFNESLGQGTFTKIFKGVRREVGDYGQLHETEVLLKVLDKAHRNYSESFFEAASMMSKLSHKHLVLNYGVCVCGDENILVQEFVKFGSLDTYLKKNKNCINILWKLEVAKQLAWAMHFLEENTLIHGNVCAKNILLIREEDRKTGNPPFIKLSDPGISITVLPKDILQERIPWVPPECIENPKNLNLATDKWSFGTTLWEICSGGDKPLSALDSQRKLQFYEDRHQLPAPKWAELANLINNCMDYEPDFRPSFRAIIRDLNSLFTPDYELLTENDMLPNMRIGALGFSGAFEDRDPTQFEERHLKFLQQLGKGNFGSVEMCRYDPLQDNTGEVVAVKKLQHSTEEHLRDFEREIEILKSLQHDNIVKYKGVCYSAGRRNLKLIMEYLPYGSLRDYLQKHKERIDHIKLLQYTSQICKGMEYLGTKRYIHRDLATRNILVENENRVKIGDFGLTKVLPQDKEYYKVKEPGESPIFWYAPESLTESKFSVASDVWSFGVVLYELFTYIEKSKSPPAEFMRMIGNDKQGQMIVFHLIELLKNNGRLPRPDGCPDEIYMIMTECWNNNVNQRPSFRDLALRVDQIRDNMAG
For series [12], the target named is FGFR1 (UniProt P11362). The series is described as above.
Series [13] addresses Fes (UniProt P07332). Described as above.
Series [14] has as its target SHP2-C SH2. Nature of the series: SH2 binding enrichment of the phosphorylated peptide, bacterial display (enrichment ratio); higher = better substrate or ligand; peptides without Tyr show the background.
Series [15] deals with Grb2 SH2 (UniProt P62993). The series is described as above.
In series [16] the target is c-Src SH2. The series is described as above.
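Throughout, for SH2 binding enrichment of the phosphorylated peptide, bacterial display: peptide library displayed on the E. coli surface as eCPX fusions, selected cells deep-sequenced, score is each peptide's frequency after selection divided by its frequency in the input.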
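Throughout, for phosphorylation enrichment, bacterial display: 11-residue human phosphosite peptides and single-mutation variants displayed on the E. coli surface, counted by deep sequencing, each peptide's frequency after selection divided by its frequency in the unselected input library; frequency after pTyr selection over input frequency; kinase dosed for 20-30% of maximal phosphorylation in three min.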

Chain of MERTK (Q12866 whole entry, looked up): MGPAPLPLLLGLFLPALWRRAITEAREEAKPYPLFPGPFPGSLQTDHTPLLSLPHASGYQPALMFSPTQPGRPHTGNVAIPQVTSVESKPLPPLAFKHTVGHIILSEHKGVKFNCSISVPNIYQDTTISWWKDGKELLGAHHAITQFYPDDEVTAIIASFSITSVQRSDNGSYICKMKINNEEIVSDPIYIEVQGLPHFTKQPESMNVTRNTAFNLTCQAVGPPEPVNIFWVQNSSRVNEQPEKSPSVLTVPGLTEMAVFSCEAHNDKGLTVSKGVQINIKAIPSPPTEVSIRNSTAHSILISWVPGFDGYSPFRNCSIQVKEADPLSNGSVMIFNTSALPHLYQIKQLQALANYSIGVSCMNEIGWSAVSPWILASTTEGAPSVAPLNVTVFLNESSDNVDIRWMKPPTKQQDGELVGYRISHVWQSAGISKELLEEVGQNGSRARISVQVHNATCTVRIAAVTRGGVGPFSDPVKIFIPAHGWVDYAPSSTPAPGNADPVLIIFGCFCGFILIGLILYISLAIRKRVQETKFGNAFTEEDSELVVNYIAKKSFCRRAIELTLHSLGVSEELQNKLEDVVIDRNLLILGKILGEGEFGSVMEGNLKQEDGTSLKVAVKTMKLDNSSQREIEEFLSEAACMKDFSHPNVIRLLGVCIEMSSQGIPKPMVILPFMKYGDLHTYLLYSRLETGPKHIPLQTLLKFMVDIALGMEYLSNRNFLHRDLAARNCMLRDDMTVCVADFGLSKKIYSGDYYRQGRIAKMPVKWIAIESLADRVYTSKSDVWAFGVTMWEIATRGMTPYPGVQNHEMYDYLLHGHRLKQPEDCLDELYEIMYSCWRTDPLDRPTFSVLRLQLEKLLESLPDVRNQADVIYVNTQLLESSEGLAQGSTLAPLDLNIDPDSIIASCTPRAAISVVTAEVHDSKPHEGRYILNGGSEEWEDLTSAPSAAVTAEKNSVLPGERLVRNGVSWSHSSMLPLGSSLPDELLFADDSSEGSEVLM
Chain of EPHB2 (P29323 whole entry, looked up): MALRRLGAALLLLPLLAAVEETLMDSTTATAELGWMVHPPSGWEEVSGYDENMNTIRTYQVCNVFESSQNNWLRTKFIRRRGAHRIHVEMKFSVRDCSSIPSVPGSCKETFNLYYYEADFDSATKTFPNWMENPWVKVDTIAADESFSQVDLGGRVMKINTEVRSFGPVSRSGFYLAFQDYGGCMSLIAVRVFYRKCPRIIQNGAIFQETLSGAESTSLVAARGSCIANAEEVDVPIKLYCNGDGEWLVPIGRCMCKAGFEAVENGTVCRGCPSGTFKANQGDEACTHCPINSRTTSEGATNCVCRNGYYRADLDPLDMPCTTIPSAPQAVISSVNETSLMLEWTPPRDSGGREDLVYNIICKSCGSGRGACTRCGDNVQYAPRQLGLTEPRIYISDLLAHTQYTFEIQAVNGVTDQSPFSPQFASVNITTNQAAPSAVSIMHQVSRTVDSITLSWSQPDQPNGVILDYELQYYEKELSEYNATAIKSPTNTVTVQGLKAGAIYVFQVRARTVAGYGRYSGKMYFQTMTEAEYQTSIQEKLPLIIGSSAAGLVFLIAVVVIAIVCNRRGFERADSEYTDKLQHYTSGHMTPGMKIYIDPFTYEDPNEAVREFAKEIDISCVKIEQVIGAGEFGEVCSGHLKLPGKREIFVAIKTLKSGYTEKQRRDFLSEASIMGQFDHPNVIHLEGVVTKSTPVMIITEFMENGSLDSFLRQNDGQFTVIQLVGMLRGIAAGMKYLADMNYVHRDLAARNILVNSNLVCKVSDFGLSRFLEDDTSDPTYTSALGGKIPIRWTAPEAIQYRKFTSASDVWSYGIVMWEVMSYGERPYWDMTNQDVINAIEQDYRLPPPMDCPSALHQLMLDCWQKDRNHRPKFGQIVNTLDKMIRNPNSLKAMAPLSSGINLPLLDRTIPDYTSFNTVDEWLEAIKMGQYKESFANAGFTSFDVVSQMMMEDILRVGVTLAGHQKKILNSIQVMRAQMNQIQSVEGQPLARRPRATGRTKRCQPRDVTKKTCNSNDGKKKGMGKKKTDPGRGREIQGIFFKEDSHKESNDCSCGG

In the case of YRVDCYKNFVA [FHL1_Y213_C209R], the phosphorylation enrichment in series [1] was found to be 0.984; in series [2] it was 0.595; in series [3], 0.507; in series [4] it was 0.504; in [5], 0.543; in series [6], 0.415. Moreover, the phosphorylation enrichment amounted to 0.559 in series [7]; 0.487 in series [8]; 0.493 in [9]; 0.753 in series [10]; 0.837 in [11]; 0.565 in [12]. For the same sequence, in series [13], the phosphorylation enrichment came out at 1.22. Moreover, the SH2 binding enrichment in [14] worked out at 0.984; in series [15], 1.51; in series [16], 0.556.
YSIAQYCCRMG [LRRK2_Y2023_G2019S]: the phosphorylation enrichment in series [1] came out at 1.24; in [2] it was 12; in [3], 8.37; in [4] it was 0.895; in series [5], 5.03; in series [6], 0.79. Besides, the phosphorylation enrichment was 1.98 in series [7]; 0.911 in series [8]; 1.23 in [9]; 0.64 in series [10]; 0.574 in series [11]; 0.987 in series [12]. In series [13], the phosphorylation enrichment came to 0.708. Further, the SH2 binding enrichment amounted to 1.18 in series [14], 1.14 in series [15] and 2.36 in series [16].
For the sequence YSPYDYQPCLA [TNS1_Y798], the phosphorylation enrichment was determined as 2.3 in [1]; 4.75 in series [2]; 5.67 in series [3]; 4.27 in series [4]; 0.973 in [5]; 3.49 in [6]. Moreover, the phosphorylation enrichment is 3.32 in series [7]; 2.41 in [8]; 3.46 in [9]; 1.84 in series [10]; 1.07 in [11]; 2.63 in series [12]. The phosphorylation enrichment in series [13] was 1.28. The results for the SH2 binding enrichment in [14], in series [15] and in [16] were 0.546, 0.746 and 0.647, respectively.
